PMC8766471, “Mutations affecting the N-terminal domains of SHANK3 point to different pathomechanisms in neurodevelopmental disorders” (Scientific Reports, 2022)

B1: Shank3 Ank repeats (residues 99-348), WT, recombinant (domain or fragment, rat, UniProt Q9JLU4 99-348, looked up)
chain: QNLIDDKQFAKLHTKANLKKFMDYVQLHSTDKVARLLDKGLDPNFHDPDSGECPLSLAAQLDNATDLLKVLRNGGAHLDFRTRDGLTAVHCATRQRNAGALTTLLDLGASPDYKDSRGLTPLYHSALGGGDALCCELLLHDHAQLGTTDENGWQEIHQACRFGHVQHLEHLLFYGANMGAQNASGNTALHICALYNQESCARVLLFRGANKDVRNYNSQTAFQVAIIAGNFELAEVIKTHKDSDVVPFRE
notes: Shank3, rat, Ank repeats, residues 99-348; expressed from pET-SUMO; also called WT Ank; WT Ank domain; source: E. coli BL21*(DE3), purified (HisTrap HP, SUMO protease, reverse HisTrap pass)
B2: isolated SPN domain of Shank3, recombinant (domain or fragment, rat, UniProt Q9JLU4 1-92, looked up)
chain: MDGPGASAVVVRVGIPDLQQTKCLRLDPTAPVWAAKQRVLCALNHSLQDALNYGLFQPPSRGRAGKFLDEERLLQDYPPNLDTPLPYLEFRY
notes: Shank3 SPN domain, isolated; the methods of expression list only residues 1-348 and 99-348; also called WT SPN

Key:
[1] = target: B2; experiment: ITC; 25 °C; 20 mM Tris pH 7.5, 1 M NaCl, 0.5 mM TCEP; 25 µM SPN in the cell, 400 µM WT Ank or P141A Ank in the syringe; single-site-binding model; conditions: both partners purified
[2] = target: B1; experiment: as above; conditions: both partners purified

Binder: B1
- dH [1]: -3.7 kcal/mol

Binder: B2
- Kd [2]: 19 µM
